From article PMC2109139 come the findings set out here.

The target of the assay is subunit of the Mo-Fe protein from Azotobacter vinelandii nitrogenase (Azotobacter vinelandii (strain OP)) (UniProt P07328). Kind of assay: electron microscopy.

“subunit of the Mo-Fe protein from Azotobacter vinelandii nitrogenase (from UniProt P07328 1-492) (natural protein)”: the stoichiometry N (as a rule, a count of units in the complex or per binding partner) came out at 4.
